Where a chain is given by its changes, count along the chain named.
What was measured:
[1] = Pharmacokinetic analysis in WT BALBc mice (serum, ELISA); assay type: in vivo, mouse
Excerpt: The pharmacokinetic (PK) properties of lead-labelled DARPin (MAM160, MAM279, MAM282, MAM283) conjugates were investigated in mice, including to determine the terminal half-life (or serum half-life) of these conjugates.
In brief, DARPins MAM279, MAM283, MAM160 and MAM282 were conjugated to the chelator DOTAM, via a C-terminal Cysteine containing tag and a connector, as described in Example 3. The conjugates were then labelled with natural lead (Pb). The protein components of the conjugates corresponded to SEQ ID NOs: 15 to 18, respectively. These lead-labelled DARPin conjugates were injected i.v. at 1 mg/kg into WT BALBc mice. Serum was collected 2 min, 10 min, 30 min, 1 h, 4 h, 24 h, 48 h, and 72 h post-injection. DARPins were detected and measured by ELISA. The data were expressed as the DARPin concentration in serum (nmol/L).
In brief, lead-labelled MAM279 conjugate, as described in Example 13, was injected i. at 0.1 mg/kg or at 1 mg/kg into the tail vein of WT BALBc mice. Serum was collected 2 min, 10 min, 30 min, 1 h, 4 h, 24 h, 48 h, and 72 h post-injection for MAM279 conjugate injected at 1 mg/kg, and 2 min, 30 min, 4 h, 24 h, 30 h, 48 h, 72 h, 96 h, and 168 h post-injection for MAM279 conjugate injected at 0.1 mg/kg. DARPins were detected and measured by ELISA. The data were expressed as the DARPin concentration in serum (nmol/L).
In brief, natural lead-labelled MAM279 conjugate, as described in Example 13, was injected i.v. at different doses (0.001 mg/kg, 0.01 mg/kg, 0.1 mg/kg, or 1 mg/kg) into the tail vein of WT BALBc mice. Similarly, unconjugated Rova was injected iv. at 1 mg/kg into the tail vein of WT BALBc mice. Serum was collected 2 min, 10 min, 30 min, 1 h, 4 h, 24 h, 48 h, and 72 h post-injection for MAM279 conjugate injected at 1 mg/kg, and 2 min, 30 min, 4 h, 24 h, 30 h, 48 h, 72 h, 96 h, and 168 h post-injection for MAM279 conjugate injected at 0.1 mg/kg, 0.01 mg/kg and 0.001 mg/kg. Serum was collected 2 min, 30 min, 4 h, 24 h, 30 h, 48 h, 72 h, 96 h, and 168 h post-injection for Rova antibody injected at 1 mg/kg. DARPins and Rova were detected and measured by ELISA. Rova PK characteristics were calculated with time points between 4 h and 168 h and MAM279 conjugate PK characteristics were calculated with time points between 4 h and 72 h. The data were expressed as the DARPin or Rova concentration in serum (nmol/L). Results are shown in FIGS. 19A and 19B and Table 22.

[2] = target: T1, human DLL3 (Homo sapiens, UniProt Q9NYJ7); experiment: SPR multi-trace analysis, binding to human DLL3 (Example 1); conditions: immobilized bio-DLL3 (hDLL3 ECD), PBS pH 7.4, 1:1 Langmuir, Table 1
T1 construct: (Q9NYJ7, Gene ID: 10683, residues 27 to 466; purchased from Evitria); 3C protease recognition site (C); Fc knob into hole (C); purchased Evitria
T1 sequence (Q9NYJ7 27-466): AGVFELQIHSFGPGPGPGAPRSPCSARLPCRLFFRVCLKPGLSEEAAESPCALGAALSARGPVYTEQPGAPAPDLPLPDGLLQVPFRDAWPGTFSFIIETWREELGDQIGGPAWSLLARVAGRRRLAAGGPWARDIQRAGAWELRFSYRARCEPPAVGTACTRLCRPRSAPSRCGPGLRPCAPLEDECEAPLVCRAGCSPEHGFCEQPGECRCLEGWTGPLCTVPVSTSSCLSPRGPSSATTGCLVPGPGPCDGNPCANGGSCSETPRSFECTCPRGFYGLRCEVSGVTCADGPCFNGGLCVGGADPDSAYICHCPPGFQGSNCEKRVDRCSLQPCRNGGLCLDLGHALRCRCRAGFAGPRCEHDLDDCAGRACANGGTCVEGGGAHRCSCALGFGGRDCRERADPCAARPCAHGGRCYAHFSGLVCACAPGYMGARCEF
Description: Kinetic binding parameters and binding affinities of two domain (2D) ankyrin repeat proteins comprising an ankyrin repeat domain with binding specificity for DLL3 and an ankyrin repeat domain with binding specificity for serum albumin were determined by surface plasmon resonance (SPR) multi-trace analysis.
In brief, a SPR assay was used to determine the binding kinetics to the target human DLL3. The data were generated using BioRad ProteOn instrument in SPR running buffer (PBS, pH 7.4 containing 0.005% Tween 20®). […] The chip was coated with biotinylated target (bio-DLL3) to reach a signal intensity of 1780 RU. All analytes (3-fold dilution ranging from 300-33.3 nM) were injected in succession for 240 s (100 μl/min) and dissociation was recorded for 10800 s (100 μl/min). Each injection was followed by a regeneration step with 16 mM H3PO4 for 18 s. […] The bio-DLL3 target used was as described in U.S. 63/550,951, i.e. the extracellular domain (ECD) of human DLL3 protein (Q9NYJ7, Gene ID: 10683, residues 27 to 466; purchased from Evitria) linked via an Avi-tag (for site-directed biotinylation), followed by a 3C protease recognition site, to a Fc knob into hole (hDLL3 ECD-Avi-Fckih).

[3] = target: T2, mouse serum albumin (Mus musculus, UniProt P07724); experiment: SPR binding to mouse serum albumin (Example 1); conditions: immobilized MSA, 1:1 Langmuir, Table 2
T2 construct: purchased Sigma-Aldrich
Description: Similarly, a SPR assay was used to determine the binding kinetics to human or mouse serum albumin. […] All analytes (3-fold dilution ranging from 1000-12.35 nM) were injected in succession for 240 s (25 μl/min) and dissociation was recorded for 600 s (25 μl/min). […] The obtained SPR traces were used to determine the ankyrin repeat protein-serum albumin interaction parameters, summarized in Table 2.

[4] = 1 mg/kg i.v., MAM279 natural lead-labelled conjugate (time points 4-72 h), Rova unconjugated (4-168 h), Table 22
[5] = 1 mg/kg i.v., MAM279 natural lead-labelled conjugate, Rova unconjugated, Table 22
[6] = natural lead-labelled DOTAM conjugate 0.1 mg/kg i.v., Table 17
[7] = natural lead-labelled DOTAM conjugate 1 mg/kg i.v., Tables 16, 17
[8] = natural lead-labelled conjugate 0.001 mg/kg i.v., Table 22
[9] = natural lead-labelled conjugate 0.01 mg/kg i.v., Table 22
[10] = natural lead-labelled conjugate 0.1 mg/kg i.v., Table 22

T2 sequence (P07724 25-608): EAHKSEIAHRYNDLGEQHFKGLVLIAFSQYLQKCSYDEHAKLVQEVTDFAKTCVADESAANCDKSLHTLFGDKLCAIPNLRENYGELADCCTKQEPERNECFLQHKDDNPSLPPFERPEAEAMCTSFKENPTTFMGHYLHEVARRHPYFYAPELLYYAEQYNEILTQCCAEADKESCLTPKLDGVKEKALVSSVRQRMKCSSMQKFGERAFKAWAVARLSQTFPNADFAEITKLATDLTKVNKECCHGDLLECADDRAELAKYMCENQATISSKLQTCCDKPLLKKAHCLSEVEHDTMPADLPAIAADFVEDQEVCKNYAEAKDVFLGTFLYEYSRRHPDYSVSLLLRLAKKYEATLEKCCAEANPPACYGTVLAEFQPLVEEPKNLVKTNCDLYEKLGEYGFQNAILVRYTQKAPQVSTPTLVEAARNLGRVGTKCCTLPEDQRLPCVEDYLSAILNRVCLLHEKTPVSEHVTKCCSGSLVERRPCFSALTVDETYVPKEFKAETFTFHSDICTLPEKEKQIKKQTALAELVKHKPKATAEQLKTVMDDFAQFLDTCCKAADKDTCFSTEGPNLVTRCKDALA

B1: MAM279 conjugate: SEQ ID NO: 15 conjugated to DOTAM-maleimide, labelled with Pb-212 (natural lead in PK studies) (conjugate)
chain: GSDLGKKLLEAARAGQDDEVRELLKAGADVNAKDYFSHTPLHLAARNGHLKIVEVLLKAGADVNAKDFAGKTPLHLAADAGHLEIVEVLLKAGADVNAQDIFGKTPADIAADAGHEDIAEVLQKAAGSPTPTPTTPTPTPTTPTPTPTGSDLGKKLLAAAAQGQDDEVRELLKAGANVNAKDLFGYTPLHLAAWRGHLEIVEVLLKAGADVNAKDAAGETPLHLAAWFGHLEIVEVLLKAGADVNAQDLQGKTPADLAAKEGHEDIAEVLQKAAGSGSC
modifications: DOTAM-maleimide, Pb-212 label; Ankyrin repeat protein with tag (GS-MAM279-tag)
- serum half-life ([1]; 0.001 mg/kg i.v.): 39.9 h
- serum half-life ([1]; 0.01 mg/kg i.v.): 33.1 h
- serum half-life ([1]; 0.1 mg/kg i.v.): 32.8 h
- serum half-life ([1]; 1 mg/kg i.v.): 30.5 h

B2: Rova: Rova antibody, DLL3-binding benchmark antibody used as positive control and comparison (antibody, chains of the INN, looked up, V domains shown)
VH: QVQLVQSGAEVKKPGASVKVSCKASGYTFTNYGMNWVRQAPGQGLEWMGWINTYTGEPTYADDFKGRVTMTTDTSTSTAYMELRSLRSDDTAVYYCARIGDSSPSDYWGQGTLVTVSS
VL: EIVMTQSPATLSVSPGERATLSCKASQSVSNDVVWYQQKPGQAPRLLIYYASNRYTGIPARFSGSGSGTEFTLTISSLQSEDFAVYYCQQDYTSPWTFGQGTKLEIK
- serum half-life ([1]; 1 mg/kg i.v.): about 145 hours
- AUCINF_pre [1, 4]: 11918.3 nmol·h/L
- AUClast [1, 4]: 6636.1 h*hr*nmol/L
- HL_Lambda_z [1, 4]: 145.8 h
- AUC_%Back_Ext_pre [1, 5]: 0%
- AUC_%Extrap_Pred [1, 5]: 44%
- Cl_pred [1, 5]: 0.6 mL/h/kg
- Cmax [1, 5]: 130 nM
- Tmax [1, 5]: 1.98 min
- Vss_pred [1, 5]: 0.12 L/kg

B3: MAM279: Two domain (2D) ankyrin repeat protein: serum albumin-specific domain (SEQ ID NO: 7), PT linker, DLL3-specific domain of MAM093 (protein)
chain: DLGKKLLEAARAGQDDEVRELLKAGADVNAKDYFSHTPLHLAARNGHLKIVEVLLKAGADVNAKDFAGKTPLHLAADAGHLEIVEVLLKAGADVNAQDIFGKTPADIAADAGHEDIAEVLQKAAGSPTPTPTTPTPTPTTPTPTPTGSDLGKKLLAAAAQGQDDEVRELLKAGANVNAKDLFGYTPLHLAAWRGHLEIVEVLLKAGADVNAKDAAGETPLHLAAWFGHLEIVEVLLKAGADVNAQDLQGKTPADLAAKEGHEDIAEVLQKAA
modifications: Ankyrin repeat protein (MAM279)
- Kd [2]: 0.616 nM
- koff [2]: 1.44e-05 s⁻¹
- kon [2]: 23300 M⁻¹ s⁻¹
- AUCINF_pre [1, 4]: 29383.7 nmol·h/L
- AUClast [1, 4]: 23892.0 h*hr*nmol/L
- HL_Lambda_z [1, 4]: 30.5 h
- AUC_%Back_Ext_pre [1, 5]: 0%
- AUC_%Extrap_Pred [1, 5]: 19%
- Cl_pred [1, 5]: 1.2 mL/h/kg
- Cmax [1, 5]: 1330 nM
- Tmax [1, 5]: 1.98 min
- Vss_pred [1, 5]: 0.048 L/kg
- AUCINF_pred [1, 6]: 2.4051 µM·h
- AUC_% Back_Ext_pred [1, 6]: 0%
- AUC_% Extrap_pred [1, 6]: 3%
- AUClast [1, 6]: 2343.4 nmol·h/L
- CI_pred [1, 6]: 1.4 mL/h/kg
- Cmax [1, 6]: 88.3 nM
- HL_Lambda_z [1, 6]: 32.8 h
- Tmax [1, 6]: 1.98 min
- Vss_pred [1, 6]: 0.066 L/kg
- AUCINF_pred [1, 7]: 29.3837 µM·h
- AUC_% Back_Ext_pred [1, 7]: 0%
- AUC_% Extrap_pred [1, 7]: 19%
- AUClast [1, 7]: 23892.0 nmol·h/L
- CI_pred [1, 7]: 1.2 mL/h/kg
- Cmax [1, 7]: 1330 nM
- HL_Lambda_z [1, 7]: 30.5 h
- Tmax [1, 7]: 1.98 min
- Vss_pred [1, 7]: 0.048 L/kg
- AUCINF_pre [1, 8]: 7.0 nmol·h/L
- AUC_%Back_Ext_pre [1, 8]: 0%
- AUC_%Extrap_Pred [1, 8]: 28%
- AUClast [1, 8]: 5.0 h*hr*nmol/L
- Cl_pred [1, 8]: 4.9 mL/h/kg
- Cmax [1, 8]: 0.29 nM
- HL_Lambda_z [1, 8]: 39.9 h
- Tmax [1, 8]: 1.98 min
- Vss_pred [1, 8]: 0.267 L/kg
- AUCINF_pre [1, 9]: 101.0 nmol·h/L
- AUC_%Back_Ext_pre [1, 9]: 0%
- AUC_%Extrap_Pred [1, 9]: 3%
- AUClast [1, 9]: 98.3 h*hr*nmol/L
- Cl_pred [1, 9]: 3.4 mL/h/kg
- Cmax [1, 9]: 3.7 nM
- HL_Lambda_z [1, 9]: 33.1 h
- Tmax [1, 9]: 1.98 min
- Vss_pred [1, 9]: 0.157 L/kg
- AUCINF_pre [1, 10]: 2405.1 nmol·h/L
- AUC_%Back_Ext_pre [1, 10]: 0%
- AUC_%Extrap_Pred [1, 10]: 3%
- AUClast [1, 10]: 2343.4 h*hr*nmol/L
- Cl_pred [1, 10]: 1.4 mL/h/kg
- Cmax [1, 10]: 88.3 nM
- HL_Lambda_z [1, 10]: 32.8 h
- Tmax [1, 10]: 1.98 min
- Vss_pred [1, 10]: 0.066 L/kg
- Kd [3]: 367 nM
- Koff MSA [3]: 0.0335 s⁻¹
- Kon MSA [3]: 91240 M⁻¹ s⁻¹

B4: MAM283: Two domain (2D) ankyrin repeat protein: serum albumin-specific domain (SEQ ID NO: 7), PT linker, DLL3-specific domain (SEQ ID NO: 3) (protein)
chain: B3 chain with Q160D, K171Q, N175D, K204E, K237E, L247V, K270Q
modifications: Ankyrin repeat protein (MAM283)
- Kd [2]: 0.953 nM
- koff [2]: 1.79e-05 s⁻¹
- kon [2]: 18800 M⁻¹ s⁻¹
- AUCINF_pred [1, 7]: 14.4943 µM·h
- AUC_% Back_Ext_pred [1, 7]: 0%
- AUC_% Extrap_pred [1, 7]: 2%
- AUClast [1, 7]: 14243.6 nmol·h/L
- CI_pred [1, 7]: 2.3 mL/h/kg
- Cmax [1, 7]: 1440 nM
- HL_Lambda_z [1, 7]: 12.7 h
- Tmax [1, 7]: 1.98 min
- Vss_pred [1, 7]: 0.035 L/kg
- Kd [3]: 507 nM
- Koff MSA [3]: 0.0378 s⁻¹
- Kon MSA [3]: 74680 M⁻¹ s⁻¹
